Measurements reported in patent US20240180982A1 (published 2024).

B1: HAdV-B3k (other)
chain: TFDSSNSIALKNNTLWTGPKPEANCIIEYGKQNPDSKLTLILVKNGGIVNGYVTLMGASDYVNTLFKNKNVSINVELYFDATGHILPDSSSLKTDLELKYKQTADFSARGFMPSTTAYPFVLPNAGTHNENYIFGQCYYKASDGALFPLEVTVMLNKRLPDSRTSYVMTFLWSLNAGLAPETTQATLITSPFTFSYIREDD

Experiments:
[1] = target: Recombinant Human CXADR Fc Chimera Protein (CAR; R&D Systems, 3336-CX-050) (human) (UniProt P78310); assay: SPR (BIAcore 3000), receptor amine coupled to CM5 chip, knob as analyte
Chain of Recombinant Human CXADR Fc Chimera Protein (CAR; R&D Systems, 3336-CX-050) (human) (P78310 20-237, change not shown): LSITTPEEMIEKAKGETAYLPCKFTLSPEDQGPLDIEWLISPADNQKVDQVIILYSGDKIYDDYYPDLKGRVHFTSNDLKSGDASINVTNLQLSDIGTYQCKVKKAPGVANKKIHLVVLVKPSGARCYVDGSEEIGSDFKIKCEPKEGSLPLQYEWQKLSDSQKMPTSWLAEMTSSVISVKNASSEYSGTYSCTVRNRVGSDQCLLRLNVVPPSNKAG

[2] = target: Recombinant Human Desmoglein-2 Fc Chimera Protein (R&D Systems, 947-DM-100) (human) (UniProt Q14126); assay: SPR
[3] = target: CAR on CHO-CAR cells (human) (UniProt P78310)
Chain of CAR on CHO-CAR cells (human) (P78310 20-365): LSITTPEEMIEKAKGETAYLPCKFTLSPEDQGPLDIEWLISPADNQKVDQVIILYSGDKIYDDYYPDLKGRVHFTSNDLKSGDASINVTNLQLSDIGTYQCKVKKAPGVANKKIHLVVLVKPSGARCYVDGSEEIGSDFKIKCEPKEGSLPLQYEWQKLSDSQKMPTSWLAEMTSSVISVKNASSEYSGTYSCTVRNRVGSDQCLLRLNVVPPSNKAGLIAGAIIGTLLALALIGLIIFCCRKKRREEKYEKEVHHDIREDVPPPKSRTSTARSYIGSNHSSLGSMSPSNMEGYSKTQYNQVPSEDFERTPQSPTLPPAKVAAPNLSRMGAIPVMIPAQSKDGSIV

[4] = target: Recombinant Human CD46 Protein (His Tag) (Sino biological, 12239-H08H) (human) (UniProt P15529); assay: SPR (BIAcore 3000), receptor amine coupled to CM5 chip, knob as analyte, equilibrium fit
[5] = target: Recombinant Human Desmoglein-2 Fc Chimera Protein (R&D Systems, 947-DM-100) (human) (UniProt Q14126); assay: as above
[6] = target: T1, Recombinant Human CD46 Protein (His Tag) (Sino biological, 12239-H08H) (human, UniProt P15529 35-328); assay: SPR
T1 chain: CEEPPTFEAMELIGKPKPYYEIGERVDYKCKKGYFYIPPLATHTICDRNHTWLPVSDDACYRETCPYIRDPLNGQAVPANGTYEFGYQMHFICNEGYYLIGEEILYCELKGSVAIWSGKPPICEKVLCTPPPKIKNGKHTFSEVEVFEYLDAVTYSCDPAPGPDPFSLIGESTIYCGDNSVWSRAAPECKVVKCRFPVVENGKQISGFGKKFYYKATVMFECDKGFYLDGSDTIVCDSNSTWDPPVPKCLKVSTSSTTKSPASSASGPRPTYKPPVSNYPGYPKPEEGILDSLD

[7] = target: T2, Recombinant Human Desmoglein-2 Fc Chimera Protein (R&D Systems, 947-DM-100) (human, UniProt Q14126 50-609); assay: SPR
T2 chain: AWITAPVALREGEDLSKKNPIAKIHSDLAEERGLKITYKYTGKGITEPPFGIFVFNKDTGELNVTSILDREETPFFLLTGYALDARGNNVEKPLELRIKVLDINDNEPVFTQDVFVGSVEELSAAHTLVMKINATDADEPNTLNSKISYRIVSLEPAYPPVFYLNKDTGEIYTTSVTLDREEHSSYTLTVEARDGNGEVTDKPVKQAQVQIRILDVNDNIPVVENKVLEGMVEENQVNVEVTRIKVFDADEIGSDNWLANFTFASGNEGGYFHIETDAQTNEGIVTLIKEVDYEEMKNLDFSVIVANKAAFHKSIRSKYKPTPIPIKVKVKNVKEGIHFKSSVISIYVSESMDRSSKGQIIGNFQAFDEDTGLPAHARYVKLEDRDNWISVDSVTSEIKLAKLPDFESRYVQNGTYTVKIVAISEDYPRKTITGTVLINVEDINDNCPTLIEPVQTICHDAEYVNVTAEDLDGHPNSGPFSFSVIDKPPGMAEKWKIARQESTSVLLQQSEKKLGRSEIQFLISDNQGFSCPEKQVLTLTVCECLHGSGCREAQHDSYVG

| Molecule | Kd [1] | Kd [2] | fold lower affinity than HAdV-C5 (by IC50 values) [3] | Kd [4] | Kd [5] | Kd [6] | Kd [7] |
| --- | --- | --- | --- | --- | --- | --- | --- |
| Recombinant HAdV-C5 fiber knob protein (from UniProt P11818 387-581) | 0.00076 µM | 125 µM |  |  |  |  |  |
| Recombinant HAdV-D10 fiber knob protein | 0.44 µM |  | 16.5 fold | 20 µM | 125 µM |  |  |
| B1 |  |  |  |  |  | 0.16 µM | 66.9 µM |
